For this test, the target named is T1, full length WT dynamin-1 (UniProt Q05193).
T1 sequence: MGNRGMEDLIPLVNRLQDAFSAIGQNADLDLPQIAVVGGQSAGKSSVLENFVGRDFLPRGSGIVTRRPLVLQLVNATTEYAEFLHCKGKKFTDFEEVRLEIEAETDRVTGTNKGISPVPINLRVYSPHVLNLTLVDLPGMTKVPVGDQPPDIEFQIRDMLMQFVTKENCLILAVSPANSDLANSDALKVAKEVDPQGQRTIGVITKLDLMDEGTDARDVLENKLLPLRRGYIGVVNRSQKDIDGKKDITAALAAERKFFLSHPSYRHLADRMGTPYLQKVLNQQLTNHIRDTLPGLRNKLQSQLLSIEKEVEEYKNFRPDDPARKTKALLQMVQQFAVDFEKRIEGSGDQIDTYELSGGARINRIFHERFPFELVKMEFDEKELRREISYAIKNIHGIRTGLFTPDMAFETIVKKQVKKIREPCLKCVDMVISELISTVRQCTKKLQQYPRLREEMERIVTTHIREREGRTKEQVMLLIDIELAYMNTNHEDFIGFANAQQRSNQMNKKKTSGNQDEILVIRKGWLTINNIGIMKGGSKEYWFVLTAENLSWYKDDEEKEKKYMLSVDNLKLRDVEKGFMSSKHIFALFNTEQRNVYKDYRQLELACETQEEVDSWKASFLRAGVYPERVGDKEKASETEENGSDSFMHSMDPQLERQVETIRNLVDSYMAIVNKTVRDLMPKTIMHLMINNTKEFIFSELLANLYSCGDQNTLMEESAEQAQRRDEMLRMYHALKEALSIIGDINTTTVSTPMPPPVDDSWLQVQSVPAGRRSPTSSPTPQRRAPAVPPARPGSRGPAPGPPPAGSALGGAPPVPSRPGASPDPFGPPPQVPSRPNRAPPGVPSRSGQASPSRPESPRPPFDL

The values below come from paper PMC3561337.

Positions count from the first letter of the chain named. Names may count otherwise.

B1: full length S45N dynamin-1 (enzyme)
chain: T1 sequence with S45N
Take B1: the inhibition of fission activity (vesicle release from SUPER templates) of 0.5 µM WT dynamin-1 by increasing S45N (∼50% at mutant:WT 0.5; value given at 1:1), 1 mM GTP, room temperature worked out at 80%.

B2: full length Q40E dynamin-1 (enzyme)
chain: T1 sequence with Q40E
B2 yielded an inhibition of fission activity (vesicle release from SUPER templates) of 0.5 µM WT dynamin-1 by increasing Q40E (∼50% at mutant:WT 0.5; value given at 1:1), 1 mM GTP, room temperature of 60%.
